These results are taken from publication PMC4113456, “Atypical Signaling and Functional Desensitization Response of MAS Receptor to Peptide Ligands” (PLoS ONE, 2014).

The target of data set [1] is T1, MAS (Homo sapiens, UniProt P04201).
T1 construct: expressed in transfected cells
T1 sequence (P04201 1-325): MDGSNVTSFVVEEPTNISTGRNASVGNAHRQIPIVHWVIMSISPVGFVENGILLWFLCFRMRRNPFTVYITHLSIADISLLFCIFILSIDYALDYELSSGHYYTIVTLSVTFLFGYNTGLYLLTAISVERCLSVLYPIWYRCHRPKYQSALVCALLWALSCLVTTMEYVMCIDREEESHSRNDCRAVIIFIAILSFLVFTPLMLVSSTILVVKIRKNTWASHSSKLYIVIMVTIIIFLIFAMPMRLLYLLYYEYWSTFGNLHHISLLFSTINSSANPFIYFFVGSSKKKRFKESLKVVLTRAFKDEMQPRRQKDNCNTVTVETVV
Also noted: method as in ref [10,11] (a number printed in a supplementary file, which may have a reference list of its own: not looked up in the article's list). The settings on record: ref [10,11], read-out: EC50 (Calcium assay); cited from earlier work.

For data set [2], the target named is T1, MAS. In words: FLIPR calcium assay, induced myc-tagged WT MAS HEK293 stable cell line. The format is cell-based. The settings on record: WT MAS.
Experimental: The assay was performed using FLIPR Calcium 5 assay kit (Molecular Devices, Sunnyvale, CA). For calcium measurements, cells at a density of 125,000 cells/well in 100 µl medium were seeded onto a 96-well clear bottom black cell culture plate that was pre-coated with poly-L-lysine. In the calcium assays the cell density of 125,000 cells/well was consistently maintained to minimize variability between independent experiments. The cells were seeded in induction media to induce MAS expression or in complete media for negative controls. The plate was maintained in a cell culture incubator for 26–28 h. The cells were then serum starved for 2 h by replacing the medium with 100 µl of serum free DMEM. In the case of pre-treatment with pan-inhibitor of G protein signaling, BIM-46187, the cells were initially serum starved for 1 h by replacing the medium with 50 µl of serum free DMEM. After 1 h, 50 µl of BIM-46187 was added to the cells to a final concentration of 25 µM and treated for another 1 h. Following serum starvation, 100 µl of calcium sensitive dye along with 2x (2.5 mM final concentration) probenecid (Life Technologies, Grand Island, NY) was added to the cells. During this step, AR-inverse agonist or BIM-46187 was also added at desired concentrations to the calcium dye preparation in case of experiments where cells were pre-treated with these inhibitors. The cells were maintained for one hour in the cell culture incubator. Following this, the 96-well plate containing cells loaded with calcium dye and a U-bottom 96-well plate containing ligands at 5x the desired final concentration in D-PBS (1.47 mM KH2PO4, 138 mM NaCl, 2.67 mM KCl, 8.1 mM Na2HPO4, pH 7.3) were allowed to equilibrate for 15 min on a FlexStation 3 instrument (Molecular Devices, Sunnyvale, CA) at 37°C. The plates were further equilibrated on the instrument for 5 min with the lids removed from the plates. The instrument was programmed in FLEX mode to add ligands (50 µl at 5x concentration) to the cells and to monitor the fluorescence before and after adding the ligands. In re-stimulation and antagonism assays the instrument is programmed to add 35 µl of first ligand followed by addition of the second ligand (35 µl) after 10 min. […] Therefore, when using 5x ligand stock the maximum AR-agonist concentration that could be tested was 10 µM.
In the calcium assays, the maximum response and minimum response values in relative fluorescence units (RFU) were extracted by subtracting the corresponding baseline value wherein baseline is defined as the average fluorescence of all time points before addition of ligand.
The kinetic parameter t1/2 (time taken to reach half of the maximum response) was determined using SoftMax Pro software supplied with the FlexStation 3 instrument (Molecular Devices, Sunnyvale, CA).
For re-stimulation assays, the data is expressed as the percentage of maximum agonist stimulation to allow for ready comparison between individual experiments. […] For all the assays, the EC50 and IC50 values were estimated by fitting the data to a three parameter dose response using GraphPad Prism software (GraphPad, La Jolla, CA).
Data set [3] concerns MAS. The settings on record: Mouse MAS; ref [6]; cited from earlier work.
Data set [4] addresses T2, myc-tagged wild-type human MAS receptor (human) (UniProt P04201).
T2 sequence: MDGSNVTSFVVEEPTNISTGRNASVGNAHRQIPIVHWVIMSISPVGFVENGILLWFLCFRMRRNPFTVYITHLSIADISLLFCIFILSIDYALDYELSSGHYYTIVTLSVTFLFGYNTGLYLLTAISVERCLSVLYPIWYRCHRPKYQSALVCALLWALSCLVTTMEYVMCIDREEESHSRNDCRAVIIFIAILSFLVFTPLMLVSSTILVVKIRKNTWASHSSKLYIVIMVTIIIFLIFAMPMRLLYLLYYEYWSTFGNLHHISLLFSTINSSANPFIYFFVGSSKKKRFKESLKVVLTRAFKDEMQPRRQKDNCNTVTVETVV

Data set [5] addresses T2, myc-tagged wild-type human MAS receptor (human). This is another data set of the same source.

Read-outs that look alike come from different tables or passages of the source. No end group written: not given here.

What is called EC50 is the midpoint of the concentration-response curve. Take “P33 / CGEN-857: peptide agonist, sequence SMCHRWSRAVLFPAAHRP”: in data set [1], the EC50 is 1 µM.
“P61 / CGEN-856: peptide agonist, sequence FLGYCIYLNRKRRGDPAFKRRLRD”: the EC50 in data set [1] was 0.57 µM.
On to VYIHP [Ang(3–7)] [listing 1 of 2 here], for which the “EC50, Calcium assay” value in data set [2] (induced cells) is “cbd”.
Consider VYIHP [Ang(3–7)] [listing 2 of 2 here], for which, in data set [2] (t1/2 at 1000 µM (1 mM) ligand concentration), the “t1/2, Calcium assay” value is 15.0 ± 0.5 s.
YLFQPQRF-NH2 [[Y^1]-NPFF]: the EC50 in data set [2] (induced cells) amounted to 12.2 ± 2 µM.
For [^DPro^7]-Ang(1-7), the “Remarks: effect on Ang(1-7) response” value in data set [3] is on record as “Inhibits Ang(1-7) response”.

B1: [^DY^1] [^NMeF^3]-NPFF (peptide)
peptide: YLFQPQRF
HELM: PEPTIDE1{[dY].L.[meF].Q.P.Q.R.F.[am]}$$$$V2.0; N-terminus assumed
SMILES: CC(C)C[C@H](NC(=O)[C@H](N)Cc1ccc(O)cc1)C(=O)N(C)[C@@H](Cc1ccccc1)C(=O)N[C@@H](CCC(N)=O)C(=O)N1CCC[C@H]1C(=O)N[C@@H](CCC(N)=O)C(=O)N[C@@H](CCCNC(=N)N)C(=O)N[C@@H](Cc1ccccc1)C(N)=O
On to B1, for which, in data set [4], the EC50, calcium assay, induced WT MAS stable HEK293 cells worked out at 2.4 µM.

B2: [Sar^1]-Ang(1–7)-amide (peptide)
peptide: GRVYIHP
HELM: PEPTIDE1{[Sar].R.V.Y.I.H.P.[am]}$$$$V2.0; N-terminus assumed
SMILES: CC[C@H](C)[C@H](NC(=O)[C@H](Cc1ccc(O)cc1)NC(=O)[C@@H](NC(=O)[C@H](CCCNC(=N)N)NC(=O)CNC)C(C)C)C(=O)N[C@@H](Cc1c[nH]cn1)C(=O)N1CCC[C@H]1C(N)=O
As to B2, the EC50, calcium assay, induced WT MAS stable HEK293 cells in data set [5] is 193 µM.
Turning to RVYIHPF [AngIII], the EC50, calcium assay, induced WT MAS stable HEK293 cells (response incompletely inhibited by AR-inverse agonist; non-specific response in un-induced cells at 1 mM) in data set [5] is 30.7 µM.
As for VYIHPF-NH2 [AngIV-amide], in data set [5], the EC50, calcium assay, induced WT MAS stable HEK293 cells (response incompletely inhibited by AR-inverse agonist; non-specific response in un-induced cells at 1 mM) stood at 24.4 µM.
On to YLFQPQRF-NH2 [[Y^1]-NPFF], for which, in data set [4], the EC50, calcium assay, induced WT MAS stable HEK293 cells is 12.2 µM.
